The source of these data is patent US20180303952A1 (CYTOMX THERAPEUTICS, published 2018).

Values joined by “and” are separate entries in the source; they are usually repeats but may differ in a detail not shown here. Identical values can stand only once. Like-named read-outs stand apart in the source and are kept apart here.

Experiment [1] addresses T1, recombinant human CD147-Fc chimeric protein deglycosylated with Protein Deglycosylation Mix II (New England … (human, UniProt P35613-2 25-205, N- and simple O-linked carbohydrates removed enzymatically (NEB Protein Deglycosylation Mix II, about 16 hrs at 37 C))).
T1 construct: Same bought protein as m9 after deglycosylation (migrates at 52 and 48 kDa); also called CD147-Fc (deglyc-NEB); Fc part of the bought chimera not given
T1 sequence (looked up): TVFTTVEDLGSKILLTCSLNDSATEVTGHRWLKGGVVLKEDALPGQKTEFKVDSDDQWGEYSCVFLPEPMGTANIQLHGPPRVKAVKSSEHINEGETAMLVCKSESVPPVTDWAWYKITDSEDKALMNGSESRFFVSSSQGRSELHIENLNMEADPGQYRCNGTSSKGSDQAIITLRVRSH
In words: ELISA, deglycosylated CD147-Fc adsorbed at 1 ug/mL, anti-human Fab-peroxidase detection; apparent KD. The protocol:
(§1) In this example, recombinant human CD147-Fc chimeric protein (R&D Systems, cat. no. 927-EMN-050) was deglycosylated of N- and simple O-linked carbohydrates using the Protein Deglycosylation Mix II (˜16 hrs incubation at 37° C.; New England Biolabs, cat. no. P6044S) or the Enzymatic Protein Deglycosylation Kit (˜1.5 days+incubation at 37° C.; Sigma-Aldrich, cat. no. EDEGLY) in accordance with their respective protocols. […] Bovine fetuin, which includes both N- and O-linked carbohydrates, was used a control for the extent of deglycosylation.
(§2) After buffer exchange with PBS, the deglycosylated or glycosylated proteins were adsorbed onto ELISA plates at 1 μg/mL. […] Bound humanized antibody of the present disclosure was detected with anti-human Fab-peroxidase secondary antibody and the mouse 3A11 monoclonal antibody was detected with anti-mouse Fc-peroxidase secondary antibody, and Ultra TMB detection (Thermo Fisher Scientific).
For orientation: An ELISA detects its analyte on a solid surface through an enzyme-linked reagent.

Experiment [2] has as its target T2, recombinant human CD147-Fc chimeric protein deglycosylated with Enzymatic Protein Deglycosylation Kit … (human, UniProt P35613-2 25-205, N- and simple O-linked carbohydrates removed enzymatically (Sigma-Aldrich EDEGLY kit, about 1.5 days at 37 C)).
T2 construct: Same bought protein as m9 after deglycosylation (migrates at 52 and 48 kDa); also called CD147-Fc (deglyc-Sigma); Fc part of the bought chimera not given
T2 sequence (looked up): T1 sequence (looked up)
The experiment is described as above. The procedure: as §1, §2

Experiment [3] concerns the target T3, recombinant human CD147-Fc chimeric protein (glycosylated) (human, UniProt P35613-2 25-205, glycosylated as supplied (migrates at about 62 kDa)).
T3 construct: Bought protein; also called CD147-Fc (glycosylated); R&D Systems cat. no; 927-EMN-050; Fc part of the bought chimera not given
T3 sequence (looked up): T1 sequence (looked up)
In words: ELISA, CD147-Fc adsorbed at 1 ug/mL, anti-human Fab-peroxidase detection; apparent KD. The procedure:
as §2

For experiment [4], the target named is T4, human CD147 protein (adsorbed to ELISA plates) (human, UniProt P35613-2 22-205, limits assumed).
T4 construct: also called human CD147 polypeptide; Basigin
T4 sequence (looked up): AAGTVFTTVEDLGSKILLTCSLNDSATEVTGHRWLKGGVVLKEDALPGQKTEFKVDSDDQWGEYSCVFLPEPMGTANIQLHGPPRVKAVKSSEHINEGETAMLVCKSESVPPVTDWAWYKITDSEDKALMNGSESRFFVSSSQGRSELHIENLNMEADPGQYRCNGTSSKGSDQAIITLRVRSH
In words: ELISA, human CD147 protein adsorbed to plate, anti-human Fab-peroxidase detection; apparent KD. The procedure: The antibody of the present disclosure that was assayed in this exemplary study was hu 3A11 Lc1/Hc1 (VL of SEQ ID NO: 5 and VH of SEQ ID NO: 1). Mouse anti-human CD147 monoclonal antibody 3A11 (VL of SEQ ID NO: 8 and VH of SEQ ID NO: 4) was assayed as a reference. Using a standard ELISA protocol, human CD147 protein was absorbed to ELISA plates and subsequently incubated with the indicated concentration of antibody of the present disclosure. Bound humanized antibody of the present disclosure was detected with anti-human Fab-peroxidase secondary antibody and the mouse 3A11 monoclonal antibody was detected with anti-mouse Fc-peroxidase secondary antibody, and Ultra TMB detection (Thermo Fisher Scientific).

The target in experiment [5] is T5, cynomolgus monkey CD147 on the cynomolgus primary kidney epithelial cell line (cynomolgus monkey).
T5 construct: whole, on cells; also called cynomolgus CD147
In words: FACS on cynomolgus primary kidney epithelial cell line, Alexa Fluor 647 goat anti-human IgG detection. The protocol:
In this study, the binding of the humanized anti-human CD147 antibody of the present disclosure to the indicated cell lines were performed using a standard FACS labelling method. Briefly, cells were labeled with the indicated antibodies of the present disclosure: anti-human CD147 antibody (humanized anti-human CD147 hu3A11 antibody; VH of SEQ ID NO: 1, VL of SEQ ID NO: 5) at the indicated concentrations and subsequently detected with an Alexa Fluor 647 labeled goat anti-human IgG secondary antibody.

The target of experiment [6] is T4, human CD147 protein (adsorbed to ELISA …). In words: ELISA, human CD147 protein adsorbed to plate, anti-human Fab-peroxidase detection; apparent KD. The procedure: The antibodies of the present disclosure that were assayed in this exemplary study were hu 3A11 Lc1/hu 3A11 Hc1 (VL of SEQ ID NO: 5 and VH of SEQ ID NO: 1), hu 3A11 Lc2/hu 3A11 Hc2 (VL of SEQ ID NO: 6 and VH of SEQ ID NO: 2), hu 3A11 Lc4/hu 3A11 Hc2 (VL of SEQ ID NO: 8 and VH of SEQ ID NO: 2). Using a standard ELISA protocol, human CD147 protein was absorbed to ELISA plates and subsequently incubated with the indicated concentration of antibody of the present disclosure. Bound humanized antibody of the present disclosure was detected with anti-human Fab-peroxidase secondary antibody, and Ultra TMB detection (Thermo Fisher Scientific).
The source holds these as a separate data set.

Experiment [7] shares this target. The description is as above. The procedure:
For the exemplary assay depicted in FIGS. 7A-7C, standard ELISA protocol was used, in which human CD147 protein was absorbed to ELISA plates and subsequently incubated with the indicated concentration of antibody of the present disclosure. Bound humanized activatable antibody of the present disclosure was detected with anti-human Fab-peroxidase secondary antibody and Ultra TMB detection (Thermo Fisher Scientific).
This is another data set of the same source.

Experiment [8] shares this target. The experiment is described as above. The protocol:
Using a standard ELISA protocol, human CD147 protein was absorbed to ELISA plates and subsequently incubated with the indicated concentration of antibody of the present disclosure. Bound humanized activatable antibody of the present disclosure was detected with anti-human Fab-peroxidase secondary antibody and Ultra TMB detection (Thermo Fisher Scientific).
The source holds these as a separate data set.

B1: humanized anti-human CD147 monoclonal antibody hu 3A11 Lc1/Hc1 (antibody, V domains shown)
VH: EVQLVESGGGLVQPGGSLRLSCAASGFTFSNYWMDWVRQAPGKGLEWVGEIRLKSYNYATHYAASVKGRFTISRDDSKNSVYLQMNSLKTEDTAVYYCTAAGTDYWGQGTLVTVSS
VL: DIQMTQSPSSLSASVGDRVTITCRASQSVRTDVGWYQQKPGKAPKLLIYYSSNRYTGVPSRFSGSGSGTDFTLTISSLQPEDFATYYCQQDYSSPYTFGQGTKLEIK
notes: Detected with anti-human Fab or anti-human IgG secondary antibodies; also called hu 3A11 (hu Lc1/hu Hc1); hu 3A11 (hu Hc1/Lc1)
On to B1, for which the Kd in experiment [1] amounted to 185 pM; in experiment [2] it was 175 pM; in experiment [3], 191 pM; in experiment [4], 710 pM; in experiment [5], 1300 pM; in experiment [6] it was 852 pM. The Kd in experiment [7] was 450 pM and 590 pM; in experiment [8], 140 pM.
